From PMC11094075, “Ago2/CAV1 interaction potentiates metastasis via controlling Ago2 localization and miRNA action” (EMBO Reports, 2024)

Molecular target: T1, HA-tagged wild-type Ago2 (HA-Ago2Wt), in Ago2-knockout A549 and HCC1806 cells (human, UniProt Q9UKV8 1-859)
T1 construct: Argonaute-2 (Ago2), human; source: lentiviral (pLV-EF1a-HA-Ago2-Blast), Ago2-knockout A549 and HCC1806 cells, in lysate; not shown: HA, N-terminal, kept
Assay: co-IP; Ago2-knockout A549 and HCC1806 cells expressing HA-Ago2Wt, HA-Ago2K212A or HA-Ago2K212R; IP with anti-HA, blot for endogenous CAV1; ratio pCAV1/pHA; vehicle or TM (10 µM)
Conditions: partners not purified

T1 sequence (Q9UKV8 whole entry): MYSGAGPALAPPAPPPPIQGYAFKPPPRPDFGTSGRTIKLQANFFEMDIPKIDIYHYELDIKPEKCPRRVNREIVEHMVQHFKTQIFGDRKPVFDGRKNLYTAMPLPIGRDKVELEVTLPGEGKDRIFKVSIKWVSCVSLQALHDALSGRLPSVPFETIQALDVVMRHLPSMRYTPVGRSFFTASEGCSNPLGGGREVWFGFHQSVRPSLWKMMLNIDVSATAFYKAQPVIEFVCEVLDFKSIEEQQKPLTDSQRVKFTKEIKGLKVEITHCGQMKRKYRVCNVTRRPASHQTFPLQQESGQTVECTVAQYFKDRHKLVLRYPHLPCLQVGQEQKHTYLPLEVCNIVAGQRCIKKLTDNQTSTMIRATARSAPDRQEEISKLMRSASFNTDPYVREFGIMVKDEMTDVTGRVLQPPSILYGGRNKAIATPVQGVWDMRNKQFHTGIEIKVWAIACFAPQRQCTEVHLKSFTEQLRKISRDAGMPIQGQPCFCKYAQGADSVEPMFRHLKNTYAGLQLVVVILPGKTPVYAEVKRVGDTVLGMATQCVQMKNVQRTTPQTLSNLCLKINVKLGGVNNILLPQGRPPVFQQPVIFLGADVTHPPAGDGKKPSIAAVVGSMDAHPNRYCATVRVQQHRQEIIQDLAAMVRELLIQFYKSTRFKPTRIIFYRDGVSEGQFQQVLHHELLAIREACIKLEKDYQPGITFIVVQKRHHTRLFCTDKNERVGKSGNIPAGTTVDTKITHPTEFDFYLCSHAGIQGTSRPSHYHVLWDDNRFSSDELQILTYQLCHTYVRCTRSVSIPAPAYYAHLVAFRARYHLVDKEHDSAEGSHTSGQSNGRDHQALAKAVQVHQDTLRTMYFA

B1: Caveolin-1 (CAV1), endogenous (natural protein, UniProt Q03135 1-178, looked up)
chain: MSGGKYVDSEGHLYTVPIREQGNIYKPNNKAMADELSEKQVYDAHTKEIDLVNRDPKHLNDDVVKIDFEDVIAEPEGTHSFDGIWKASFTTFTVTKYWFYRLLSALFGIPMALIWGIYFAILSFLHIWAVVPCIKSFLIEIQCISRVYSIYVHTVCDPLFEAVGKIFSNVRINLQKEI
notes: Caveolin-1 (CAV1), human; source: endogenous
  percent of pCAV1/pHA left in cells treated with TM (10 µM) against vehicle: ~49%
